Test results reported in patent US10105454B2, “Ultrashort peptides as exogenous second harmonic probes for bioimaging applications” (Agency for Science, Technology and Research, priority 2014, dated 2018).
Values joined by “and” are separate entries in the source; they are usually repeats but may differ in a detail not shown here. Equal values may be shown once. No end group written: not given here.

How the values were obtained:
[1] = Powder SHG efficiency (Kurtz and Perry powder technique, sucrose standard); assay type: physicochemical; conditions: relative to sucrose; average ± standard deviation
Description: (§1) We acquired SHG images using a commercial laser scanning microscopic imaging system (Zeiss LSM 510 META, Jena, Germany) coupled to a mode-locked femtosecond Ti: sapphire laser (Mai-Tai broadband, Spectra-Physics), tunable from 710 nm to 990 nm. To achieve spectral analysis and detect the SHG signal, we used the META detector with 32-gated photon counting module.
All these peptides are SHG-active. We used a powder technique developed by Kurtz and Perry to evaluate the SHG efficiency of these second-order nonlinear optical materials. Sucrose, having a relatively modest nonlinearity, was chosen as a standard to evaluate second harmonic generation efficiencies. […] The efficiency of LD6 and IK3 were even three times higher than that of sucrose. These may due to their molecular structures. LD6 is known to form hydrogel at much lower concentrations compared to LK6. The trimer IK3 has larger dipole moment compared to LK6. […] This agrees with the previous findings. In Table 1, all the tested amyloid-like peptides were SHG-active with some showing even higher SHG efficiency than collagen subtypes. This provides a broad spectrum of materials as second harmonic probes.

[2] = at 12 mM, ref [18]; cited from earlier work
[3] = Hyper Rayleigh Scattering, ref [19]; cited from earlier work
[4] = tested on: HeLa cells; assay: MTS cytotoxicity test, HeLa cells; assay type: cell-based, human; conditions: 48 h, 0.1 to 1000 μg/mL
Procedure: (§2) In order to use LK6 for bioimaging applications, such as monitoring cells and in vivo imaging, we assessed the cytotoxicity of LK6 by the MTS test. The MTS test was applied to two human cell lines, HeLa and primary human dermal fibroblasts (HDF). The toxicity of LK6 was measured at 0.1, 1, 10, 100 and 1000 μg/mL. Cells were exposed to cell culture media containing LK6 solution for 48 h. […] Calcein AM can penetrate cell membrane and be converted to cell membrane impermeable green fluorescent calcein, while red fluorescent EthD-1 is excluded by the intact cell membrane of live cells.
(§3) We cultured both HeLa and human dermal fibroblasts in DMEM supplemented with 10% fetal bovine serum and 1% penicillin/streptomycin (Life technologies, Singapore).
(§4) In order to use LK6 for bioimaging applications, such as in vitro monitoring cells and in vivo imaging the whole animal, we assessed the cytotoxicity of LK6 by the MTS test and live/dead assay with two human cell lines, human epithelial carcinoma cells (HeLa) and primary human dermal fibroblasts (HDF).

[5] = tested on: primary human dermal fibroblasts (HDF); assay: Calcein AM/EthD-1 live/dead staining, HDF cells; assay type: cell-based; conditions: 48 h, 1 and 1000 μg/mL
Procedure: (§5) (b) Cytotoxicity determined by Calcein AM/EthD-1 (live/dead, green/red) staining method after 48 h treated with 1 and 1000 μg/mL LK6 peptide solutions using non-treated cells as control.
as §2, §4

[6] = SHG imaging and spectral analysis of peptide particles; assay type: physicochemical
Description: as §1
To test whether the amyloid-like peptides of the present invention are SHG-active, we first investigated a hexamer peptide, Ac-LIVAGK-NH2, (LK6) (SEQ ID NO: 27). Peptide particles deposited on a glass microscope slide were examined under an SHG imaging system. Instrument details can be found in our previous work. During the whole experiments, only the backscattered geometry was employed because it is the only suitable configuration for in vivo imaging. We chose collagen I as a control. For more than a decade it has been shown that SHG microscopy can visualize supramolecular assembly of collagen in tissues. […] The fine structures of collagen and peptide particles can be clearly seen under SHG and scanning electron microscopy (SEM, FIG. 1a insert, 1b and 1c).
We further characterized LK6 peptide. […] When excited at 810 nm, LK6 emitted a sharp SHG peak at 405 nm (FIG. 2a). We then examined the excitation wavelength tunability of SHG signals from LK6 peptide. In FIG. 2b, as the excitation wavelength was increased from 810 to 890 nm, the wavelength of the SHG signals from the LK6 peptide particles increased from 405 to 445 nm respectively. Biological samples, such as cells and tissues, are known to have auto-fluorescence. With excitation wavelength tunability, we can better avoid auto-fluorescence. In addition, we can further increase penetration depth in tissues by simply increasing excitation wavelength. […] The band width (full width at half-maximum of Gaussian distribution, FWHM) was narrow (˜10 nm) and it obeys a relationship to the corresponding wavelength profile of the fundamental beam (˜15 nm). Moreover, we measured the dependence of the output signal on irradiation intensity by varying the 850 nm excitation intensity. […] (1)

[7] = tested on: primary human dermal fibroblasts (HDF); assay: MTS cytotoxicity test, human dermal fibroblasts; assay type: cell-based; conditions: 48 h, 0.1 to 1000 μg/mL
Procedure: as §2, §3, §4

[8] = tested on: HeLa cells; assay: Calcein AM/EthD-1 live/dead staining, HeLa cells; assay type: cell-based, human; conditions: 48 h, 1 and 1000 μg/mL
Procedure: as §5, §2, §4

Substance	Powder SHG efficiency I^2ω/I^2ω(sucrose) [1]	Hydrogel formation [2]	further results
GGVVIA (listed as Homo sapiens) [GA6]	1.52 ± 0.43	self-assembled into hydrogels	–
Type I: human collagen subtype I, control and endogenous SHG probe	1.23 ± 0.36	–	First hyperpolarizability β [3]: 1250±20 ×10-30 esu
IVK [IK3]	3.31 ± 0.57	self-assembled into hydrogels	–
Ac-LIVAGK-NH2 [LK6, Ac-LIVAGK-NH2]	0.95 ± 0.19	self-assembled into hydrogels	Cell viability (MTS) [4]: either equivalent to or even higher than that of untreated cells; Cytotoxicity by live/dead staining [5]: no toxicity; SHG peak emission wavelength ([6]; excitation 810 nm): 405 nm; SHG band width (FWHM of Gaussian distribution) ([6]; excitation 850 nm): ~10 nm; SHG emission maximum (Gaussian fit) ([6]; excitation 850 nm): 425 nm; SHG signal wavelength ([6]; excitation 890 nm): 445 nm and 450 nm; Cell viability (MTS) [7]: either equivalent to or even higher than that of untreated cells; Cytotoxicity by live/dead staining [8]: no toxicity
PPG	–	–	First hyperpolarizability β [3]: about 0.087 ×10-30 esu
DFNKF (listed as Homo sapiens) [DF5]	0.89 ± 0.33	self-assembled into hydrogels	–
LIVAGD (Ac-LIVAGD) [LD6, designed synthetic hexamer, negatively charged, acetylated at the N terminus]	3.06 ± 0.65	self-assembled into hydrogels	–
Type II: human collagen subtype II	0.41 ± 0.13	–	–
ILVAGS (Ac-ILVAGS) [IS6, designed synthetic hexamer, neutral, acetylated at the N terminus]	1.96 ± 0.58	self-assembled into hydrogels	–
NFGAIL (listed as Homo sapiens) [NL6]	0.76 ± 0.21	self-assembled into hydrogels	–
KLVFFAE (listed as Homo sapiens) [KE7]	3.18 ± 0.67	self-assembled into hydrogels	–
GGG	–	–	First hyperpolarizability β [3]: about 0.087 ×10-30 esu
